T1: survivin, heteroclitic variant 97M peptide on HLA-A*02:01 (human)
T1 peptide: LMLGEFLKL

T2: CSF3R (Granulocyte colony stimulating factor receptor) peptide on HLA-A*02:01 (human)
T2 peptide: HIILGLFGLL

T3: CD3d (CD3 delta) peptide on HLA-A*02:01 (human)
T3 peptide: LALGVFCFA

T4: CRLS1 (cardiolipin synthase) peptide on HLA-A*02:01 (human)
T4 peptide: NIALGVFALA

T5: CD3d (CD3 delta) peptide on HLA-A*02:01 (human)
T5 peptide: LLALGVFCFA

T6: INGR2 (Interferon gamma receptor 2) peptide on HLA-A*02:01 (human)
T6 peptide: LLLLGVFAAA

T7: EPB42 (Erythrocyte membrane protein band 4.2) peptide on HLA-A*02:01 (human)
T7 peptide: QLLLGQFTLL

T8: CD81 (CD81 antigen) peptide on HLA-A*02:01 (human)
T8 peptide: QCLLGTFFTC

T9: survivin peptide on HLA-A*02:01 (human)
T9 peptide: ELTLGEFLKL

T10: survivin ELT, alanine substitution at position 3 (residues not given, written out from the filing's … (human))
T10 peptide: ELALGEFLKL

T11: survivin ELT, alanine substitution at position 5 (residues not given, written out from the filing's … (human))
T11 peptide: ELTLAEFLKL


What was measured:
[1] = biological target: T1, survivin, heteroclitic variant 97M …; test: 4-hour 51Cr release, 50% lysis at E:T 10:1, LML-pulsed T2 cells; value given for a published TCR (Leisegang et al. 2010); T cell clone or line
[2] = biological target: T1, survivin, heteroclitic variant 97M …; test: 4-hour 51Cr release, 50% lysis at E:T 10:1, clone #24 against LML-pulsed T2 cells, peptide titration; T cell clone or line
[3] = biological target: T2, CSF3R (Granulocyte colony stimulating …); test: cytokine release
[4] = biological target: T3, CD3d (CD3 delta) peptide on HLA-A*02:01; test: cytokine release
[5] = biological target: T4, CRLS1 (cardiolipin synthase) peptide on …; test: cytokine release
[6] = biological target: T5, CD3d (CD3 delta) peptide on HLA-A*02:01; test: cytokine release
[7] = biological target: T6, INGR2 (Interferon gamma receptor 2) …; test: cytokine release
[8] = biological target: T7, EPB42 (Erythrocyte membrane protein …); test: cytokine release
[9] = biological target: T8, CD81 (CD81 antigen) peptide on …; test: cytokine release
[10] = biological target: T9, survivin peptide on HLA-A*02:01; test: 51Cr release, clone #24 against ELT-pulsed T2 cells, E:T 10:1, peptide titration (avidity as defined in Table 1); T cell clone or line
[11] = biological target: T10, survivin ELT, alanine substitution at …; test: cytokine release
[12] = biological target: T11, survivin ELT, alanine substitution at …; test: cytokine release
[13] = biological target: T9, survivin peptide on HLA-A*02:01; test: killing

| Binder | EC50 of peptide [1] [nM] | EC50 of peptide [2] [nM] | binding result [3] | binding result [4] | binding result [5] | binding result [6] | binding result [7] | binding result [8] | binding result [9] | EC50 of peptide [10] [nM] | binding result [11] | binding result [12] | binding result [13] |
| --- | --- | --- | --- | --- | --- | --- | --- | --- | --- | --- | --- | --- | --- |
| A66 (TCR) alpha TRAV13-1*02 TRAJ39*01 CDR3: CAARAGNMLTF beta TRBV30*01 TRBJ2-7*01 CDR3: CAWGTGLALYEQYF | 50 | – | – | – | – | – | – | – | – | – | – | – | – |
| s24-TCR (TCR, V domains shown) Valpha: GESVGLHLPTLSVQEGDNSIINCAYSNSASDYFIWYKQESGKGPQFIIDIRSNMDKRQGQRVTVLLNKTVKHLSLQIAATQPGDSAVYFCAETVTDSWGKLQFGAGTQVVVTP Vbeta: DAMVIQNPRYQVTQFGKPVTLSCSQTLNHNVMYWYQQKSSQAPKLLFHYYDKDFNNEADTPDNFQSRRPNTSFCFLDIRSPGLGDAAMYLCATSRGDSTAEPQHFGDGTRLSIL | – | 50 | no recognition | no recognition | no recognition | no recognition | no recognition | no recognition | no recognition | 1000 | – | – | – |
| A72-TCR (TCR) Valpha: AQKITQTQPGMFVQEKEAVTLDCTYDTSDQSYGLFWYKQPSSGEMIFLIYQGSYDEQNATEGRYSLNFQKARKSANLVISASQLGDSAMYFCAMREGGGYNKLIFGAGTRLAVHP beta TRBV30*02 TRBJ1-1*01 CDR3: CAGQDLNTEAFF | 0.05 | – | no recognition | recognises | no recognition | no recognition | no recognition | no recognition | recognises | – | recognises | recognises | recognises |

From patent US20170335290A1 (published 2017)
